Measured values taken from publication PMC10073072 (2023).

Key:
[1] = target: METTL9^M6 (METTL9^46–318 with six mutations) (human, UniProt Q9H1A3 46-318); assay: ITC
METTL9^46–318 = METTL9^46–318 (human, UniProt Q9H1A3 46-318); assay: ITC
METTL9^46–318, sequence (Q9H1A3 46-318): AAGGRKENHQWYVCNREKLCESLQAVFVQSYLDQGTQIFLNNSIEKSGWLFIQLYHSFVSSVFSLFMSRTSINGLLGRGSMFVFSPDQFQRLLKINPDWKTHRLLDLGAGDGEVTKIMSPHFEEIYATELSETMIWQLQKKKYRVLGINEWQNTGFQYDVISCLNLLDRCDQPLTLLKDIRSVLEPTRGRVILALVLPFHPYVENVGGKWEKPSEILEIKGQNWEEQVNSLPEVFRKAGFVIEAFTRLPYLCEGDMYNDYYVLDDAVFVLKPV

METTL9^M6 (METTL9^46–318 with six mutations), sequence (Q9H1A3 other isoform, or with tags, fused parts or gaps): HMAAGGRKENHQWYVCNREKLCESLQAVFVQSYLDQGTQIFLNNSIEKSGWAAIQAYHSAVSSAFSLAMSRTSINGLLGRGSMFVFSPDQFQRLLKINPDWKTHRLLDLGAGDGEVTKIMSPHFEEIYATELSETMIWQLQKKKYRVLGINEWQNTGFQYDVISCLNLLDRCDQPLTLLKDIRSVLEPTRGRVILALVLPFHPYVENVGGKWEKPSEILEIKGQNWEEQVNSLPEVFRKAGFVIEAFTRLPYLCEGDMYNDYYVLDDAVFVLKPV

| Binder | Kd [1] [µM] | Kd (METTL9^46–318) [µM] |
| --- | --- | --- |
| RGHGHSHGKGC [mouse S100A9^101–111 peptide] | 3.6 | 2.3 |
| GHQGHSHGHQGGY [SLC39A5^369–380 peptide] | 9 | 9.3 |
